The results in this text go back to publication PMC8290593, “PTD-mediated delivery of α-globin chain into Κ-562 erythroleukemia cells and α-thalassemic (HBH) patients’ RBCs ex vivo in the frame of Protein Replacement Therapy” (Journal of Biological Research, 2021).

This data set deals with the molecule itself. The data set is described as follows: SDS-PAGE and Western blot; recombinant protein extracts (bacterial inclusion bodies in 1 M L-Arg pH 8.0, and soluble proteins purified by Ni2+-NTA) on 15% SDS-PAGE, immunoblotted with anti-His.IgG.

B1: 10xHis-Xa_(SITE)-α-globin-HA (natural protein)
chain: not shown
notes: A factor Xa site (Xa_(SITE), from pET-16b) lies between the 10xHis tag and α-globin. ~18.7 kDa as printed; also called α-monomer; recombinant α-globin chain; source: E. coli CD43 (DE3), pET-16b; also as bacterial inclusion bodies dissolved in 1 M L-Arg; not shown: 10xHis, N-terminal, kept; HA, C-terminal, kept
For B1, the binding result is on record as “binds”.
